Assay results reported in patent US20040171019A1, “PIN1 peptidyl-prolyl isomerase polypeptides, their crystal structures, and use thereof for drug design” (Agouron Pharmaceuticals, Inc., priority 2002, published 2004).

System: Suc-AEPF-pNA peptide substrate
Experiment: Peptidyl-prolyl isomerase activity of PIN1 polypeptides without inhibitor
Type: biochemical
Details: 0.033 nM enzyme, 100 μM Suc-AEPF-pNA
Text: PIN1 is a phosphorylation dependent peptidyl-prolyl isomerase. Peptidyl-prolyl ismomerase activity for the peptides of the invention can be measured using a spectrophotometric assay based on the coupled chymotrypsin catalyzed, cis-trans conformation dependent cleavage of a para-nitroanaline-containing peptide substrate. This rotamase assay is described by Kofron et al. (Biochemistry 30, […] (1991)) and its application to PIN1 isomerase activity is described by Yaffe et al. (Science 278, 1957-1960 (1997)). Cleavage of the isomerized peptide releases para-nitroanaline, which can be monitored by an increase in absorbance at 390 nm. The PIN1 peptide substrate, succinyl-alanine-[…]-proline-phenylalanine-paranitroaniline (Suc-AEPF-pNA) (Bachem California, Inc., Torrence, Calif.) is kept in a predominantly cis conformation with an anhydrous TFE (trifluorethanol)/LiCl (lithium chloride) solvent mixture. […]
Peptidyl-prolyl isomerase reactions were carried out in 25 mM MOPS [3-(N-Morpholino)propanesufonic acid], pH 7.5, 0.5 mM TCEP [Tris(2-carboxyethyl)phosphine hydrochloride], 2% DMSO, 5 μl of a 25 mg/ml solution of Subtilisin Carlsberg Protease (Sigma), […], and 100 μM Suc-AEPF-pNA peptide substrate. […] The absorbance at 390 nm was monitored continuously until all substrate had been converted to the cleaved product. […]

rate: 0.2
B1: mutant PIN1 PPIase (K77Q/K82Q): mutant PIN1 PPIase polypeptide (SEQ ID NO:4) devoid of the WW domain, with K77Q and K82Q substitutions (protein)
chain: GSHMGKNGQGEPARVRCSHLLVKHSQSRRPSSWRQEQITRTQEEALELINGYIQKIKSGEEDFESLASQFSDCSSAKARGDLGAFSRGQMQKPFEDASFALRTGEMSGPVFTDSGIHIILRTE
